Assay results from patent publication US20220298260A1 (MYTHIC THERAPEUTICS, published 2022).
Where a chain is given by its changes, count along the chain named. Blank lines part the entries; values can stand above or below the binder they belong to.

Target: T1, FOLR1 on NIH:OVCAR-3 cells (human, UniProt P15328 25-233)
T1 construct: Endogenous FOLR1 of NIH:OVCAR-3 (FOLR1+) cells; also called cell surface FOLR1
Assay: flow cytometry on NIH:OVCAR-3 cells, Alexa Fluor 488 anti-human IgG
Method: Binding affinity of selected anti-FOLR1 pH engineered antibody variants from Examples 9 and 11 were measured on NIH:OVCAR-3 cells. 100,000 cells per well were resuspended in […] FC buffer in a 96 well deep well plate. Mirvetuximab and pH engineered antibody variants were serially diluted at a 1:3 dilution. 100 µL of diluted antibody was added to each well with final concentration ranging from ˜100 nM to 0.024 pM and incubated for 2 hours at 4° C. Post incubation, the cells were spun at 2000 rpm for 2 min and supernatant was discarded. Cells were washed twice with 500 μL of ice-cold FC buffer and resuspended with 100 μL of FC buffer. The cells were then transferred from the deep well plate to 96 well round bottom plate, spun at 2000 rpm for 2 min and incubated with 100 μL of 10 μg/mL Alexa Fluor 488 conjugated goat anti-human IgG secondary antibody (ThermoFisher Scientific, A11013) for 30 min. Post incubation, cells were washed with FC buffer and resuspended in 100 μL, of FC buffer to read on a BD Accuri C6 flow cytometer. […] MYT0603 and MYT1154 show high affinity binding to cell surface FOLR1 on NIH:OVCAR-3 cells in the pM-nM range confirming that variants created through pH engineering can retain functionally appropriate affinities as compared to their corresponding starting ABPCs (e.g., mirvetuximab).

T1 sequence (P15328 25-233): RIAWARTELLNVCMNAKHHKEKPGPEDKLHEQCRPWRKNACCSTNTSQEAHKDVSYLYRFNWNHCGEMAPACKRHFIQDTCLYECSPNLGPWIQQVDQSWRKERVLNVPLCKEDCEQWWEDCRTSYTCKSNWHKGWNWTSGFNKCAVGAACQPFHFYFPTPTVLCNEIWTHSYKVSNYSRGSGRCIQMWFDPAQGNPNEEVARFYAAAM

IC50: 0.25 nM
B1: mirvetuximab (antibody, V domains shown)
VH: QVQLVQSGAEVVKPGASVKISCKASGYTFTGYFMNWVKQSPGQSLEWIGRIHPYDGDTFYNQKFQGKATLTVDKSSNTAHMELLSLTSEDFAVYYCTRYDGSRAMDYWGQGTTVTVSS
VL: DIVLTQSPLSLAVSLGQPAIISCKASQSVSFAGTSLMHWYHQKPGQQPRLLIYRASNLEAGVPDRFSGSGSKTDFTLTISPVEAEDAATYYCQQSREYPYTFGGGTKLEIK
notes: IgG expressed in Expi293; the entries are labelled heavy/light chain of the IgG but hold only the variable domains; also called MYT0596

IC50: 0.396 nM
B2: MYT1154 (antibody, V domains shown)
VH: B1 VH with A24H, Y27H, F59H
VL: B1 VL
notes: IgG

IC50: 0.65 nM
B3: MYT0603 (antibody, V domains shown)
VH: B1 VH with F29H
VL: B1 VL
notes: IgG
